Experimental data published in patent publication US6849441.

Molecular target: protease TCES (hyperthermostable protease derived from Thermococcus celer), enzyme preparation (Thermococcus celer)
Test: cell-based or functional assay

protease TCES (hyperthermostable protease derived from Thermococcus celer), enzyme preparation (Thermococcus celer), sequence (chain, as listed by the source limits assumed): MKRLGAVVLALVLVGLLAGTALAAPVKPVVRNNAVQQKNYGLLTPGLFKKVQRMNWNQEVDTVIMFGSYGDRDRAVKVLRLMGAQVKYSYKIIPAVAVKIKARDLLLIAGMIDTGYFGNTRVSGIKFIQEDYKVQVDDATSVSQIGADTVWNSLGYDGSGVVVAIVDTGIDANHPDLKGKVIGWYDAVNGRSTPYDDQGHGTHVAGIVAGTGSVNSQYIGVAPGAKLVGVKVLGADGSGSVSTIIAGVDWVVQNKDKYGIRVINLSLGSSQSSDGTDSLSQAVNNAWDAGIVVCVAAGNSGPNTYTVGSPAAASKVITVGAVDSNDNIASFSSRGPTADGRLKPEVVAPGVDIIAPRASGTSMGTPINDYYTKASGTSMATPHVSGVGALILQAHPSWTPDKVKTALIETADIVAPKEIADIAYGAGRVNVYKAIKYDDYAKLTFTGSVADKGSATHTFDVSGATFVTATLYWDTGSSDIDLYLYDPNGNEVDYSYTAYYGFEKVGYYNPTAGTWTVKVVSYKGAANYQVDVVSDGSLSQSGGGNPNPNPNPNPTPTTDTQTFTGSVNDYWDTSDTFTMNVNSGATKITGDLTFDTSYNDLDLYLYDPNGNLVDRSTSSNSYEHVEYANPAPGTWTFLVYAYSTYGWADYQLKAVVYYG

| Substance | enzyme activity compared with control without reagent, after treatment at 37° C. for 30 minutes with 1 mM reagent [%] |
| --- | --- |
| Chymostatin (peptide) | 0 |
| Pepstatin (peptide) | 105 |
| Leupeptin (peptide) | 104 |
| Antipain (peptide) | 19 |
